Measured values published in paper PMC10444775 (Scientific Reports, 2023).

Experiments:
Conditions in all cases: both partners purified
[1] = molecular target: SARS-CoV-2 RBD domain (used for HDX-MS of 7A9) (SARS-CoV-2, reference strain …); assay: HDX-MS
[2] = molecular target: CoV-2-S-RBD construct used for x-ray crystallography (SARS-CoV-2, UniProt P0DTC2); assay: crystal structure
[3] = molecular target: CoV-2-S-RBD-SD1 spike construct (SARS-CoV-2, UniProt P0DTC2); assay: ELISA

Measured: binding result

B1: 7A9 VHH (VHH)
VHH: QVQLVESGGGLVQAGGSLRLSCSASGGTASRSAMGWFRQAPGKEREFVAGISRRNSGSTYVADSYEDSVKGRFTISRDNAKNTIYLQMNSLKPEDTAVYYCAAEPTLGWYVPRRSVEYEYWGQGTQVTVSS
binds: all assays above
